The record followed here is patent publication US20240342244A1, “Isthmin Protein Therapeutics for the Treatment of Non-Alcoholic Fatty Liver Disease” (The Board of Trustees of the Leland Stanford Junior …, priority 2021, published 2024).

For test [1], the system named is GLUT4. In words: GLUT4 translocation to the plasma membrane in primary adipocytes (immunostaining, fractionation). It counts as cell-based, mouse. To be noted: 100 nM. As for the experimental part:
Biochemical analyses. Plasma insulin levels were measured using the Ultra-Sensitive Mouse Insulin ELISA kit (Crystal Chem Inc #90080). Plasma triglycerides were measured with Infinity triglyceride measurement kit (Thermo #TR22421) and tissue triglycerides were measured with a Triglyceride Colorimetric Assay Kit (Cayman #10010303). Lipolysis was measured in day 5 differentiated adipocytes after 4 hours of protein treatment using a glycerol release assay according to the protocol provided by the manufacturer (Abcam #ab133130). Plasma membrane protein extractions were performed according to the manufacturer's protocol (Abcam #ab65400).
Immunocytochemistry. Primary mouse preadipocytes were seeded onto collagen-coated 22 mm×22 mm coverslips and differentiated using the method above. On day 8, differentiated adipocytes were washed with PBS and starved in 0.5% BSA in KRH buffer (50 mM HEPES, 136 mM NaCl, 1.25 mM MgSO4, 1.25 mM CaCl2, 4.7 mM KCl, pH 7.4) for 3.5 h. Cells were treated with insulin or ISM1 for 30 min, followed by three washes with cold PBS. Cells were fixed with 4% PFA in PBS for 15 min at room temperature. After blocking with 2% BSA, 5% goat serum, 0.2% Triton-X in PBS for 1 hr, cells were incubated with diluted primary antibody at 4° C. overnight. The next day, cells were washed and incubated with secondary antibody on ice for 1 hr. Cells were imaged using confocal microscope (Leica TCS SP8). Hoechst (#33342, thermo fisher) was used as counterstain.

Test [2] relates to pAKT^S473. Description: pAKT S473 western blot in C2C12 skeletal muscle cells. To be noted: 100 nM, 5 min. The class given is cell-based. As for the experimental part: (§1) Western blots and molecular analyses. For western blotting, homogenized tissues or whole-cell lysates, samples were lysed in RIPA buffer containing protease inhibitor cocktail (Roche) and phosphatase inhibitor cocktail (Roche). Cell lysates were centrifuged at 14,000×g for 15 min and supernatants were prepared in 4×LDS Sample Buffer (Invitrogen) and separated by SDS-PAGE and transferred to Immobilon 0.45 μm membranes (Millipore). For Western blotting of plasma samples, 1 μl of plasma was prepared in 2× sample buffer (Invitrogen) with reducing agent, boiled, and analyzed using Western blot against indicated antibody. Protein kinase array (R&D systems ARY003B) was performed according to the manufacturers' description. All antibodies used in this paper are described in STAR methods.
For orientation: In western blotting, separated proteins are transferred to a membrane and probed.

Test [3] has as its system pS6^S235/S236. In words: Acute and long-term signaling in AML12 hepatocytes (western blot). The class given is cell-based, mouse. As for the experimental part:
as §1

Test [4] relates to IGF-I-Receptor β Tyr1135/1136 or Insulin receptor Tyr1150/1151. Description: Western blot of phosphorylated insulin and IGF receptors in 3T3-F442A cells. The class given is cell-based. The following applies: 100 nM; 2 minutes. As for the experimental part:
as §1

The subject of test [5] is differentiated 3T3-L1 adipocytes. Description: 2-deoxy-3H-glucose uptake in differentiated 3T3-L1 adipocytes. It counts as cell-based. The following applies: 1 h. As for the experimental part:
Glucose uptake. Glucose uptake was performed as previously described (You et al., 2017). Briefly, 2-Deoxy-d-[2,6-3H]-glucose was purchased from PerkinElmer NEN radiochemicals. Fully differentiated adipocytes were washed with KRH buffer and starved in 0.5% BSA in KRH buffer for 4 h. Indicated concentrations of insulin or ISM1 were added at indicated time points. Cells were treated with a mixture of 500 μM 2-deoxy-D-glucose and 1.71 μCimL^−1 2-Deoxy-D-[1,2-3H (N)]-glucose for another 10 min followed by three washes using ice cold KRH buffer containing 200 mM glucose. The passive glucose uptake in the presence of 50 uM CytoB was less than 12% of the total glucose uptake. Cells were solubilized in 1% SDS and radioactivity was measured by liquid scintillation counting.

The subject of test [6] is ISM1-KO mice. In words: In vivo 2-deoxy-3H-glucose uptake in ISM1-KO mice treated with ISM1 protein. To be noted: 5 mg/kg ISM1 protein for two days; male ISM1-KO mice. Also noted: species or system mouse. As to the method:
In vivo glucose uptake. Mice were fasted for 1 h and injected I.P. with 3H-2-deoxyglucose (3H-2-DOG) at 100 uCi/kg with or without 0.75 U/kg insulin in a total volume of 120 ul per mouse. After 30 min, mice were euthanized. Blood was collected by cardiac puncture and subsequently centrifuged to collect serum. Wet tissue weights were recorded then homogenized in 1% SDS for liquid scintillation counting. Data are expressed as CPM/mg wet weight (fold change over control).

For test [7], the system named is pAKT^S473. In words: pAKT S473 western blot in primary mouse adipocytes. It counts as cell-based. As for the experimental part: Mouse and human pre-adipocytes culture and differentiation. Inguinal fat pads from 4-8 week old C57BL/6J male and female mice were dissected and mechanically digested for 10 min using spring scissors. Digested tissues were incubated in WAT isolation buffer (10 ml PBS, 2.4 U/ml dispase II (#04942078001, Roche), 10 mg/ml collagenase D (#11088858001, Roche) at 37° C. for 45 min. 20 mL growth media was added and the tissue suspension was filtered through a 100-μm cell strainer and centrifuged at 600×g for 5 min. The cell pellets were resuspended in 20 mL growth media, filtered through a 40-μm cell strainer, centrifuged at 600×g for 5 min, resuspended in 10 mL growth media, and plated in 10-cm collagen-coated dishes. The cells were cultured in growth media (DMEM/F-12 Glutamax, Thermo Fisher Scientific #10565018) supplemented with 10% fetal bovine serum. Two days post-confluency, differentiation was induced with growth media containing 1 μM rosiglitazone, 0.5 mM isobutylmethylxanthine, 1 μM dexamethasone, 5 μg/mL insulin. After two days, cells were re-fed with growth media containing 1 μM rosiglitazone and 5 μg/mL insulin. […]
Western blots and molecular analyses. […] For Western blotting of plasma samples, 1 μl of plasma was prepared in 2× sample buffer (Invitrogen) with reducing agent, boiled, and analyzed using Western blot against indicated antibody. […]

B1: ISM1: recombinant mouse ISM1 protein with a C-terminal myc-his tag generated in mammalian HEK 293 Expi cells (protein, UniProt A2ATD1 30-454, looked up)
Isthmin-1: SDRQDAAAGNNNLNLESDSTSETSFPLSKEAPEEHQVVHQPFPRQRFPPETGHPSLQRDGPRSFLLDLPNFPDLSKADINGQNPNIQVTIEVVDGPDSEAEKDQHPENKPSWSLPAPDWRAWWQRSLSLARTNSGDQDDKYDSTSDDSNFLSVPRGWDRPAPGHRTFETKEQPEYDSTDGEGDWSLWSVCSVTCGNGNQKRTRSCGYACIATESRTCDRPNCPGIEDTFRTAATEVSLLAGSEEFNATKLFEVDMDSCERWMSCKSEFLKKYMHKVINDLPSCPCSYPTEVAYSTADIFDRIKRKDFRWKDASGPKEKLEIYKPTARYCIRSMLSLESTTLAAQHCCYGDNMQLITRGKGAGTPNLISTEFSAELHYKVDVLPWIICKGDWSRYNEARPPNNGQKCTESPSDEDYIKQFQEAREY
modifications: C-terminal myc-His tag
notes: recombinant mouse ISM1 protein with a C-terminal myc-his tag generated in mammalian HEK 293 Expi cells
Turning to B1, the “GLUT4 in plasma membrane fraction (biochemical fractionation)” value in test [1] (4 h) is reported as “translocation of GLUT4 to the plasma membrane”. Moreover, the “GLUT4 at cell surface (immunostaining, confocal microscopy)” value in test [1] (compared with control cells) is “higher levels of GLUT4 at cell surface”. In addition, the “pAKT^S473 induction” value in test [2] is listed as “induced pAKT^S473”. Further, in test [3] (24 h treatment), the “pS6^S235/S236 after long-term treatment” value was “induces hyperactivation of pS6^S235/S236”. In test [3] (insulin 1 nM up to 100 nM with 25 nM or 50 nM ISM1, 5 min), the “acute signaling added to insulin” value is “do not result in any additional signaling changes”. Besides, the IGF-R/IR phosphorylation entry in test [4] is “no phosphorylation”. In addition, the “induction of glucose uptake” value in test [5] is “does not induce glucose uptake”. In addition, in test [6], the “glucose uptake in BAT” value was “increase glucose uptake”, the “glucose uptake in iWAT” value was “trending increase”, the “glucose uptake in liver” value was “no hepatic glucose uptake induction” and the “glucose uptake in skeletal muscle” value is given as “increase glucose uptake”. Also, the “pAKT^S473 induction” value in test [7] (differentiated primary mouse brown adipocytes) is “induced pAKT^S473”. The “pAKT^S473 induction” value in test [7] (white adipocytes) is reported as “induced pAKT^S473”.
